# Data from patent publication US20200347138A1 (INDIAN INSTITUTE OF SCIENCE, published 2020).
# B1: biotin tagged recombinant human chorionic gonadotropin (ligand)
# chain 1: not shown
# chain 2: SKEPLRPRCRPINATLAVEKEGCPVCITVNTTICAGYCPTMTRVLQGVLPALPQVVCNYRDVRFESIRLPGCPRGVNPVVSYAVALSCQCALCRRSTTDCGGPKDHPLTCDDPRFQDSSSSKAPPPSLPSPSRLPGPSDTPILPQ
# modifications: biotin by Sulfo-NHS-LC Biotin on the hormone, sites not stated
# notes: also called biotin-hCG
# Experiments:
# MAb B52/28 = molecular target: T1, MAb B52/28; assay: RIA: unlabelled hormone displaces 125I-hCG from MAb 52/28 [left panel (A]
# T1 construct: hCG heterodimer specific monoclonal antibody used in the RIA
# Description: The antigen-antibody complexes formed were precipitated by adding an appropriate dilution of the normal mouse/rabbit serum, and goat anti-mouse/rabbit IgG followed by addition of 2.5% PEG. The tubes were centrifuged at 4,000 g for 20 minutes at 4 □, the supernatant was discarded and the radioactivity in the pellet was counted in Perkin Elmer γ-counter. The non-specific binding was determined by carrying out binding experiments in the absence of the primary antibodies.
# The biotin tagged hormonal antigens were analyzed by RIA using hormone specific antibodies (52/28 for hCG and FSH a/s for hFSH) for their ability to retain their immunodominant epitopes. […] The NIH iodination grade hCG and hFSH were used as the standard reference preparations in the RIA and were used for comparing the bioactivity of these hormonal antigens.
# human DEC205 = molecular target: T2, human DEC205 (human, UniProt O60449 28-1722); assay: flow cytometry on CHO/hDEC205 cells, hCG a/s and anti-rabbit IgG-FITC
# T2 construct: also called hDEC205; CHO/hDEC205
# T2 sequence (O60449 28-1722 K1321N/Y1391H limits assumed): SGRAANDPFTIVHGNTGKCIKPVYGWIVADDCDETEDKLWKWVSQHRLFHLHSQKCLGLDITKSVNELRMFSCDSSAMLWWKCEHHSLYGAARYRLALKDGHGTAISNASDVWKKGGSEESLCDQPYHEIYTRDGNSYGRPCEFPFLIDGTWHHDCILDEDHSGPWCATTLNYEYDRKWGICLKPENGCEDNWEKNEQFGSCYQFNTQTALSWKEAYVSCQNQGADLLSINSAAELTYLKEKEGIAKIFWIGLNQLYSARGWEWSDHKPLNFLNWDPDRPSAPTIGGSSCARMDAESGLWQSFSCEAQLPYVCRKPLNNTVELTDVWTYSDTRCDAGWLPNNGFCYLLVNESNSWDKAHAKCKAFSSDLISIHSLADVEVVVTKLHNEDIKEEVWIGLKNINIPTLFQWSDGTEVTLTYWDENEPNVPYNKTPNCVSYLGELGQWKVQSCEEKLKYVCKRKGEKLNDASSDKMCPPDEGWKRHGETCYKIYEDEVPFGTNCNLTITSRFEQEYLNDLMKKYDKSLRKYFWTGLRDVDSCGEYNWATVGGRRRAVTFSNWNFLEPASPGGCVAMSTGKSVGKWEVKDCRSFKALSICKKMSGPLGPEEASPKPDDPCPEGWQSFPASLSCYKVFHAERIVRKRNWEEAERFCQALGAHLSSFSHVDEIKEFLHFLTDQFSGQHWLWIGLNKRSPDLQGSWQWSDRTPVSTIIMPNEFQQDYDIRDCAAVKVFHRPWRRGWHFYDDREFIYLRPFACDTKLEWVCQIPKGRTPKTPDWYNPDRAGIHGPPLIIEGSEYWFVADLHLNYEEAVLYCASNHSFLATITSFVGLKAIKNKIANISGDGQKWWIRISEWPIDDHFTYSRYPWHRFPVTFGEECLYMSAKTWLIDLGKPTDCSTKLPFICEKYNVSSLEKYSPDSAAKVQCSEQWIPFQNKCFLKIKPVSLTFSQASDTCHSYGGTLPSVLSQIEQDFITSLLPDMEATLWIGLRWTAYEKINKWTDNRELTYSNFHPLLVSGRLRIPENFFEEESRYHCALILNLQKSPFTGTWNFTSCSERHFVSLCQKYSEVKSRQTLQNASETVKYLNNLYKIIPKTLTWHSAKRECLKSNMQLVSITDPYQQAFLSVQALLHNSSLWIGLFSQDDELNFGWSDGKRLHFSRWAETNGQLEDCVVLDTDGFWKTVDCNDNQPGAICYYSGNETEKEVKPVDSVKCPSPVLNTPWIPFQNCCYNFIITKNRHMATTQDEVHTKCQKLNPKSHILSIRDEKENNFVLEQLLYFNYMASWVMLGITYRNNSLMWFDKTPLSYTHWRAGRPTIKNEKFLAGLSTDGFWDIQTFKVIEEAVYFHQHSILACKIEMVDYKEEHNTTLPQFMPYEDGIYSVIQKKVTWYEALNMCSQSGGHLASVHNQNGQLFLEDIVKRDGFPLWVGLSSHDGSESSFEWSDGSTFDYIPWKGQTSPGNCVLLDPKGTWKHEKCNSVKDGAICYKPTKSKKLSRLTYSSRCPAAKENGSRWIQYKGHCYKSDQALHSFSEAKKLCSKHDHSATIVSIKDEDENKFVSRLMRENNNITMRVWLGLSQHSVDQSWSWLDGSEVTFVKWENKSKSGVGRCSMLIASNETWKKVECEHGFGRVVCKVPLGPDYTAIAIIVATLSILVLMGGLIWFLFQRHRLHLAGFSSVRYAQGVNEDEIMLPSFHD
# Description: The ability of ScFv to load antigen onto the human DEC205 was checked by flow cytometry.
# The complex was incubated with CHO/hDEC205 cells for one hour at 4□ followed by incubation with hCG a/s and subsequently with anti-Rabbit IgG FITC and binding was analyzed by flow cytometry.
binder,measurement,setting,value
B1,IC50 (read off the curve),MAb B52/28,~6 ng/tube
same,binding result,human DEC205,no binding
